This passage reports amyloid nucleation score results from the supplement of paper PMC12042874.

± gives the uncertainty stated by the source.

The series in a line: amyloid nucleation score (Sup35N fusion, yeast selection) (log enrichment); library NNK2; higher = more nucleation; inactive = no reads after selection. The procedure, abridged:
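After 24 hours of induction with 100 μM copper sulfate, psi-negative yeast expressing peptides of 20 random codons fused to Sup35N were grown for 7 days at 30°C on medium lacking adenine and uracil. Input and output plasmid inserts were sequenced with Illumina, and sequences with under 100 input reads were discarded. Scores for nucleation are the DiMSum log enrichment of output over input reads, centred on the mode score of non-aggregating sequences.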
With NRSFNMHPCGILKKNLVVGV, the amyloid nucleation score was 0.613 ± 0.74.
Substance NRSGEYRPLMMCVLGPLSTD had an amyloid nucleation score of 0.687 ± 0.24.
NRSLD registered an amyloid nucleation score of -1.26 ± 0.54.
In the case of NRSMSISGMTGYEQLKRHGT, the amyloid nucleation score was 0.023 ± 0.27.
With NRTFSHWTCLYLFLSTLKRE, the amyloid nucleation score is -1.06 ± 0.76.
In turn, NRYTNGPNF displayed an amyloid nucleation score of -0.106 ± 0.29.
NSFVYGCKCYALTFLRTFLV returned an amyloid nucleation score of -1.48 ± 0.62.
Next, NSINRMVVQLVG: 3.9 ± 0.087.
Substance NSIYTESHGCTSSCLYGSGY displayed an amyloid nucleation score of -0.839 ± 0.78.
Take NSLLNFVFSVYVKACIIPYT: the amyloid nucleation score entry is “inactive”.
For NSPPVLLHMWRFRRRDTRRY the value was -0.551 ± 0.61; for NSRLLLTHRRISPSPWYVGV, 1.09 ± 0.16.
In the case of NSRRQERWCFIMTLVDFDVV, the amyloid nucleation score was -0.431 ± 0.4.
On to NSTLGGVFACYYFALSHAAE, for which the amyloid nucleation score is 6.41 ± 0.059.
NTCRSYNRNVIIRARPRPGL came in with an amyloid nucleation score of 5.14 ± 0.069.
Take NTFFQYDPRHRGHTAGWCGE: the amyloid nucleation score was 0.07 ± 0.54.
Next, NTGFNCCNHFFRADGSLVEC: 3.39 ± 0.15; NTGWILPYCKRGNSALEGWL: 4.31 ± 0.056.
Take NTLGSELLLFA: the amyloid nucleation score was found to be 1.75 ± 0.2.
As to NTLSRYHFNGVRVYCEMTAL, the amyloid nucleation score entry is “inactive”.
For NTQVTQVILYLRPWV, the amyloid nucleation score was found to be 9.151 ± 0.038.
In the case of NTSFFDGTFLY, the amyloid nucleation score was determined as 0.598 ± 0.57.
Turning to NTSMSPSQYCC, the amyloid nucleation score is 2.86 ± 0.16.
Turning to NTYVRSRHMAMSYCRMQMCL, the amyloid nucleation score worked out at 0.141 ± 0.27.
Regarding NVCIKLARCVVGLNLRFRGS, the amyloid nucleation score is -0.347 ± 0.79.
NVCNTNWESVRKAWFSNMMV showed an amyloid nucleation score of 0.775 ± 0.52.
NVFLS: the amyloid nucleation score result is “inactive”.
With NVKSYKGQRFVAFGGGSVYA, the amyloid nucleation score is 0.567 ± 0.32.
NVKTKLCAGSKYSFPF yielded an amyloid nucleation score of 0.213 ± 0.43.
For NVMKVLSNRL the value was 1.61 ± 0.1.
For the substance NVPLFRSVSGDPVHHPLI, the amyloid nucleation score worked out at 2.41 ± 0.15.
Consider NVSVGVPLQRTILLDLCTGT, for which the amyloid nucleation score entry was “inactive”.
Substance NVTQMRGSDISLLRMFESNY returned an amyloid nucleation score of 0.454 ± 0.45.
As to NVVSLIIQRKLRPAPVGSFR, the amyloid nucleation score came to 0.218 ± 1.1.
For NWGTGQPYNRMCMVH the value was “inactive”; for NWKWVRSKVAWPMRSEHHVE, 1.65 ± 0.21; for NWVRINYWLRAIIKSELRVG, -0.155 ± 0.49.
The substance NWWLTHVHLVSFYVVSWGWV returned an amyloid nucleation score of 3.35 ± 0.12.
For NYILSMLCKMNARCLVTWRI, the amyloid nucleation score was found to be 0.712 ± 0.4.
NYLSLVGRFNMGWGESNGRR returned an amyloid nucleation score of 5.888 ± 0.058.
Take NYNLRDHSDVRVRCSLALSE: the amyloid nucleation score result is “inactive”.
As for NYQGI, the amyloid nucleation score was -0.874 ± 0.56.
In the case of NYQIHVRVIRHLMTLGISAQ, the amyloid nucleation score was 0.236 ± 0.35.
As for PAFMSV, the amyloid nucleation score was -1.05 ± 0.36.
Next, PAHVSYILSLCLINVC: 4.34 ± 0.072.
Next, PAPCTFRYLAITCGLTRYTC: -0.143 ± 0.34; PASTREDGWFYCAHSVVSSQ: 0.346 ± 0.54.
As to PAVSYFFITFYVIVRFRLAE, the amyloid nucleation score came out at 2.86 ± 0.18.
As for PAYRYKHSNWKNPRQ, the amyloid nucleation score entry is “inactive”.
For PCCRGRRSSLGRAIKGAEAK, the amyloid nucleation score came out at 0.009 ± 0.23.
PCGNPLQRYS returned an amyloid nucleation score of 1.62 ± 0.4.
PCIWGDVVL showed an amyloid nucleation score of 0.506 ± 0.41.
With PCNTVLASPRYHVGGIYNLK, the amyloid nucleation score was -0.727 ± 0.78.
Take PCRLHLAWIVSLMT: the amyloid nucleation score amounted to 4.21 ± 0.067.
Next, PCSANWRLYIANISGSFPMR: 5.34 ± 0.083.
Take PDFSDFITHLIGFRSMGTGG: the amyloid nucleation score was -0.694 ± 1.1.
